Values belong to the binder of their own block, whether it stands above or below them.
Legend:
CD123 = CD123 (UniProt P26951 19-378, limits assumed); assay: cell-based or functional assay
[1] = biological target: T1, folate receptor alpha (FR-α) (human, UniProt P15328 25-234); assay: FACS on T47D cells
T1 construct: whole, on cells; also called FOLR1; human folate receptor 1
Experimental: T47D cells were then resuspended in growth media (see above) to neutralize trypsin, and were counted on a Coulter counter. Cells were then washed twice in cold FACS buffer, centrifuging in between washes at 1200 rpm for 5 min.
About 100 μl/mL of 2×10⁴ cells/well were added to wells containing ADC, antibody or FACS buffer only, and incubated at 4° C. for 2 hr. After incubation, cells were centrifuged as before and washed once in 200 μL/well cold FACS buffer. Cells were then stained with 200 μL/well FITC-conjugated Goat Anti-Human-IgG-Fcγ secondary antibody (controls included were unstained cells and those stained with secondary antibody only) for 40 min at 4° C., centrifuged and washed once in 200 μL/well cold PBS-D. Cells were fixed in 200 μL/well 1% formaldehyde/PBS-D and stored at 4° C.
After storage, cellular surface staining of conjugate or antibody was detected using flow cytometry on a FACS Calibur (BD Biosciences). The geometric means were plotted against the log concentration of ADC or antibody using GraphPad Prism and the EC₅₀ was calculated via non-linear 4-parameter logistic regression analysis.

[2] = biological target: T1, folate receptor alpha (FR-α); assay: cell-based or functional assay

Sequence of CD123 (P26951 19-378 limits assumed): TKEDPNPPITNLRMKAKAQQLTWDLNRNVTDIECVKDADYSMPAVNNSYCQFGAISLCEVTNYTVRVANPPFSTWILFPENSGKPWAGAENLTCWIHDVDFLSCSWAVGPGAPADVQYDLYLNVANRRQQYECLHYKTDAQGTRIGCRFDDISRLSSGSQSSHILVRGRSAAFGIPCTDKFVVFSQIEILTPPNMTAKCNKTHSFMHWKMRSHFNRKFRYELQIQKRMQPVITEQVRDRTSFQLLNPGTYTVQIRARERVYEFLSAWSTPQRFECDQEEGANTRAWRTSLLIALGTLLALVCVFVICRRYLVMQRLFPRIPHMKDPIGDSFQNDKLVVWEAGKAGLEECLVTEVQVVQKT
T1 sequence (P15328 25-234): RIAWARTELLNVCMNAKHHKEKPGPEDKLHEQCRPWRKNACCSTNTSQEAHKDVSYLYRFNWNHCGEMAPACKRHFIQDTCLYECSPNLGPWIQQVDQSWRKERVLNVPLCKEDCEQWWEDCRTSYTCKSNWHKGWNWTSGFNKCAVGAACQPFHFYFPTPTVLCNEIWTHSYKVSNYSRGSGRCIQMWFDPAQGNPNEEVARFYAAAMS

B1: huCD123-6Rv1.1S2-SeriMab-D8 (antibody, V domains shown)
VH: SFQLVQSGAEVVKPGASVKMSCKASGYTFTSSIMHWMKQKPGQGLEWIGYIKPYNDGTKYNQKFQGKATLTSDKSSSTANMELNSLTSEDSAVYYCAREGGNDYYDTMDYWGQGTSVTVSS
VL: DIQMTQSPSSMSASVGERVTITCRASQDINSYLSWFQQKPGKSPKTLIYRVNRLVDGVPSRFSGSGSGQDYSLTISSLEPEDMGIYYCLQYDAFPYTFGQGTKLEIKR
IC50 of cytotoxicity on HNT-34 cells (WST-8) (CD123): ~2 pM
IC50 of cytotoxicity on MOLM-1 cells (WST-8) (CD123): ~30 pM
IC50 of cytotoxicity on SHI-1 cells (WST-8) (CD123): ~10 pM
loss of cytotoxicity when CD123 is blocked by unconjugated huCD123-6 antibody (CD123): 100 fold

B4: huMOV19-NTS #2-Linker1-Compound A (antibody)
heavy: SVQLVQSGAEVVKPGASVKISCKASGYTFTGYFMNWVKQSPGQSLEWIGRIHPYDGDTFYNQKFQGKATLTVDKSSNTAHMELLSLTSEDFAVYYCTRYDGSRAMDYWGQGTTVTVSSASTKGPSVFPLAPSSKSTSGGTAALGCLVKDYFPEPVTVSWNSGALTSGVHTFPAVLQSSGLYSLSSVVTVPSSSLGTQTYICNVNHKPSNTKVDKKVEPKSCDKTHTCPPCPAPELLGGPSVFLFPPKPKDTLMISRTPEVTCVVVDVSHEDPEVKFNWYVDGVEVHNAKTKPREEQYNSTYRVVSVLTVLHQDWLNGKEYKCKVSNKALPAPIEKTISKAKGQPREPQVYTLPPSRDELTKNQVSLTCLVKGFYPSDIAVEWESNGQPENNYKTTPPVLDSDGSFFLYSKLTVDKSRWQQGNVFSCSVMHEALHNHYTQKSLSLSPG
light: DIVLTQSPLSLAVSLGQPAIISCKASQSVSFAGTSLMHWYHQKPGQQPRLLIYRASNLEAGVPDRFSGSGSKTDFTLTISPVEAEDAATYYCQQSREYPYTFGGGTKLEIKRTVAAPSVFIFPPSDEQLKSGTASVVCLLNNFYPREAKVQWKVDNALQSGNSQESVTEQDSKDSTYSLSSTLTLSKADYEKHKVYACEVTHQGLSSPVTKSFNRGEC
modifications: N-terminal Ser oxidized to an aldehyde and linked through Linker1 to Compound A (sulfonated DGN462); two Compound A molecules per antibody
cytotoxicity on KB cells (WST-8), potency against the lysine-conjugated ADC, by Compound A concentration [2]: ~5 fold
cytotoxicity on KB cells (WST-8), potency against the lysine-conjugated ADC, by antibody concentration [2]: ~3 fold

The next lines start with the values.

binding result [1]: binds
B2: huMOV19-NTS #2 (antibody)
heavy: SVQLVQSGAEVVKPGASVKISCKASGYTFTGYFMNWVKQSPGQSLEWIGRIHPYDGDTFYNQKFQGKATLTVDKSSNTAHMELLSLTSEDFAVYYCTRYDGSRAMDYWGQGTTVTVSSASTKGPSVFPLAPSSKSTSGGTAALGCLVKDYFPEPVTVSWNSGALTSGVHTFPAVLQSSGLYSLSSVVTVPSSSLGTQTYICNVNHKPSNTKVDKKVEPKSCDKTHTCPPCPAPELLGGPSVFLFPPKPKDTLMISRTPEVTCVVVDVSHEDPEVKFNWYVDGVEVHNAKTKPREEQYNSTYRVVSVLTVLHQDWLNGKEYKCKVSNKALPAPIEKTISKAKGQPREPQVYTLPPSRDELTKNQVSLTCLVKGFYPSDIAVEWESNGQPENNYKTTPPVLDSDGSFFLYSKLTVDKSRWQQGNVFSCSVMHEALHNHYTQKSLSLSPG
light: B4 light
notes: huMOV19 with the heavy chain N-terminal Gln replaced by Ser (huMov19 HC NTS2); also called SeriMab; huMOV19-SeriMab antibody

binding result [1]: binds
B3: huMOV19 (antibody, human IgG1, kappa)
heavy: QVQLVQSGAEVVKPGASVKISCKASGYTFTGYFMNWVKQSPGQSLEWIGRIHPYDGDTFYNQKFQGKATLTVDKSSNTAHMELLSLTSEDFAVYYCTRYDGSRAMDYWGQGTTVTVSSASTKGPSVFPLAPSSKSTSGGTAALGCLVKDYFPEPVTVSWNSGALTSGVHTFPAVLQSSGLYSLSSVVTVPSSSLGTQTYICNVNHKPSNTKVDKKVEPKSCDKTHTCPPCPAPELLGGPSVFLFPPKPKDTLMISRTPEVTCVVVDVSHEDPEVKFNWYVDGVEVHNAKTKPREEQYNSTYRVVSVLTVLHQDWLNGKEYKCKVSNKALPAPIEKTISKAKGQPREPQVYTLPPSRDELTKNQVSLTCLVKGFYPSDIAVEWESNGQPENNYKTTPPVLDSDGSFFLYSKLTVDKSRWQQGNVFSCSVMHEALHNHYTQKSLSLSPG
light: B4 light
notes: Humanized anti-folate receptor alpha IgG1/kappa; also called M9346A; unconjugated native huMOV19 antibody

— US20240190956A1 (IMMUNOGEN, published 2024)
